Values of other authors in article PMC3789827.

What was measured:
[1] = biological target: BMPR1A ECD (Homo sapiens) (UniProt P36894); experiment: SPR (Biacore)
[2] = biological target: BMPR1B ECD (Homo sapiens) (UniProt O00238); experiment: SPR (Biacore)
BMPR1B ECD (Homo sapiens), sequence (O00238 14-126): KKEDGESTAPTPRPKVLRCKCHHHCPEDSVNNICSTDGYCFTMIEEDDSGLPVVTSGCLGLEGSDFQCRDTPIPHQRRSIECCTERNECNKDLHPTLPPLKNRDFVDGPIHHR

GDF5, sequence (P43026 382-501): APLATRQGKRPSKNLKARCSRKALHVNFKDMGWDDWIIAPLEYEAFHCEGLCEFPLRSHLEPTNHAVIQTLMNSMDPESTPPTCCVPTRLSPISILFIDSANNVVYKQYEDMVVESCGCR
BMPR1A ECD (Homo sapiens), sequence (P36894 24-152): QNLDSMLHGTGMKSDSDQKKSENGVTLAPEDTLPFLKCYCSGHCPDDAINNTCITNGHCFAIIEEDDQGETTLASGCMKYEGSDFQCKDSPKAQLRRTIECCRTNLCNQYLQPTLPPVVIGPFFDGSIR

For GDF5 (from UniProt P43026), the Kd [1] is listed as 17 nM and the Kd [2] is listed as 1.1 nM.
